# Assay results taken from article doi:10.1101/2020.01.12.903617, “The peptide sensor motif stabilizes the outward-facing conformation of TmrAB” (bioRxiv, 2020).
# Changes are numbered by the printed parent chain. Names may count otherwise.
# T1: TmrA C416S/L290C (chain of the double cysteine mutant of cysteine-less WT TmrAB) (Thermus thermophilus, UniProt Q72J05 1-600, C416S | L290C)
# T1 construct: TmrA, Thermus thermophilus, the chain of TmrAB with the canonical Walker B motif; Cysteine-less template made by GenScript; co-expressed with the TmrB chain; also called C416S^TmrA/L290C^TmrA
# T1 sequence: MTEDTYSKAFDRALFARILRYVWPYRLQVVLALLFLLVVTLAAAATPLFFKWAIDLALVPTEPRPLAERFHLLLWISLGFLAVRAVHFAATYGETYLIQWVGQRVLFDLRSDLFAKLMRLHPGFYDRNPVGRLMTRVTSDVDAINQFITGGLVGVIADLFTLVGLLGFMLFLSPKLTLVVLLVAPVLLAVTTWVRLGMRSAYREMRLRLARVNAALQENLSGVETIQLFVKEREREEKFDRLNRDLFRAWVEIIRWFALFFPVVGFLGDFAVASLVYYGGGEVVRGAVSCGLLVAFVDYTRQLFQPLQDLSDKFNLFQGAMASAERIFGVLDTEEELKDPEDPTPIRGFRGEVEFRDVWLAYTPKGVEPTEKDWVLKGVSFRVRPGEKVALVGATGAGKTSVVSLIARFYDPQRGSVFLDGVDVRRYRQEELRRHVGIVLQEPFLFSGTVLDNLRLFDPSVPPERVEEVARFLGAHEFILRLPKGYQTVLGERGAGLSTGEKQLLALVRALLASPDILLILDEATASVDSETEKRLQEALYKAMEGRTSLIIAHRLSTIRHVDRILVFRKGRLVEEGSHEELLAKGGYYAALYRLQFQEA
# T2: TmrA G131A/C416S/L290C (chain of the double cysteine mutant of G131A^TmrA TmrAB) (Thermus thermophilus, UniProt Q72J05 1-600, G131A | C416S | L290C)
# T2 construct: TmrA, Thermus thermophilus, the chain of TmrAB with the canonical Walker B motif; Cysteine-less template made by GenScript; co-expressed with TmrB V275C; also called PSM glycine mutant
# T2 sequence: T1 sequence with G131A
# B1: TmrB G116A/V275C (chain of the double cysteine mutant of G116A^TmrB TmrAB) (natural protein, Thermus thermophilus)
# chain: MTGRSAAPLLRRLWPYVGRYRWRYLWAVLAGLVSIFFFVLTPYFLRLAVDAVQAGRGFGVYALAIVASAALSGLLSYAMRRLAVVASRQVEYDLRRDLLHHLLTLDRDFYHKHRVADLMNRLNTDLSAVREMVGPGILMGSRLSFLVLLAFLSMYAVNARLAFYLTLILPGIFLAMRFLLRLIDRRYREAQEVFDRISTLAQEAFSGIRVVKGYALERRMVAWFQDLNRLYVEKSLALARVEGPLHALLGFLMGFAFLTVLWAGGAMVVRGELSCGELVQFNAYLAQLTWPILGLGWVMALYQRGLTSLRRLFELLDEKPAIRDEDPLPLALEDLSGEVRFEGVGLKRDGRWLLRGLTLTIPEGMTLGITGRTGSGKSLLAALVPRLLDPSEGRVYVGGHEARRIPLAVLRKAVGVAPQEPFLFSETILENIAFGLDEVDRERVEWAARLAGIHEEILAFPKGYETVLGERGITLSGGQRQRVALARALAKRPKILILDDALSAVDAETEARILQGLKTVLGKQTTLLISHRTAALRHADWIIVLDGGRIVEEGTHESLLQAGGLYAEMDRLQKEVEA
# notes: TmrB, Thermus thermophilus, the chain of TmrAB with the non-canonical Walker B motif; Co-expressed with TmrA C416S/L290C; The cloning paragraph prints G116A^TmrA, all other places G116A^TmrB; also called PSM glycine mutant
# B2: TmrB V275C (chain of the double cysteine mutant of cysteine-less WT TmrAB) (natural protein, Thermus thermophilus)
# chain: B1 chain with A116G
# notes: TmrB, Thermus thermophilus, the chain of TmrAB with the non-canonical Walker B motif; Co-expressed with the TmrA chain; also called V275C^TmrB
# Assays:
# [1] = target: T1, TmrA C416S/L290C (chain of the double …); assay: cross-linking; disulfide cross-linking of engineered cysteines: 1 uM TmrAB double cysteine mutants in SEC buffer, 0.5 mM copper phenanthroline, 68°C, without or with 5 mM ATP, 10 mM MgCl2 and/or 8 mM sodium orthovanadate; SDS-PAGE, ~150 kDa band of the cross-linked dimer; details: both partners purified
# [2] = target: T2, TmrA G131A/C416S/L290C (chain of the …); assay: as above; details: both partners purified
binder,measurement,setting,value
B1,binding result,[1],binds
B2,binding result,[1],binds
same,binding result,[2],binds
